Reference: PMC5698462, “Production of recombinant human procollagen type I C-terminal propeptide and establishment of a sandwich ELISA for quantification” (Scientific Reports, 2017)

B1: Procollagen type I carboxy-terminal propeptide α2 chain (PICPα2), residues 1120–1366, with N-terminal c-myc tag (domain or fragment, human, UniProt P08123 1120-1366, looked up)
chain: DQPRSAPSLRPKDYEVDATLKSLNNQIETLLTPEGSRKNPARTCRDLRLSHPEWSSGYYWIDPNQGCTMDAIKVYCDFSTGETCIRAQPENIPAKNWYRSSKDKKHVWLGETINAGSQFEYNVEGVTSKEMATQLAFMRLLANYASQNITYHCKNSIAYMDEETGNLKKAVILQGSNDVELVAEGNSRFTYTVLVDGCSKKTNEWGKTIIEYKTNKPSRLPFLDIAPLDIGGADQEFFVDIGPVCFK
notes: C-terminal propeptide of the human type I procollagen α2 chain, residues 1120–1366 (residue numbers of type I procollagen); a restriction site was removed by a silent mutation; Cloned into pSecTag2A (AscI/ApaI) for secretion; also called c-myc-tagged PICPα2; source: HEK293F, transiently co-transfected with the PICPα1 plasmid (PICPα1:PICPα2 2:1 molar ratio), secreted; co-purified from culture …
B3: Procollagen type I carboxy-terminal propeptide α1 chain (PICPα1), residues 1218–1464, with N-terminal 8× His tag (domain or fragment, human, UniProt P02452 1218-1464, looked up)
chain: ADDANVVRDRDLEVDTTLKSLSQQIENIRSPEGSRKNPARTCRDLKMCHSDWKSGEYWIDPNQGCNLDAIKVFCNMETGETCVYPTQPSVAQKNWYISKNPKDKRHVWFGESMTDGFQFEYGGQGSDPADVAIQLTFLRLMSTEASQNITYHCKNSVAYMDQQTGNLKKALLLQGSNEIEIRAEGNSRFTYSVTVDGCTSHTGAWGKTVIEYKTTKTSRLPIIDVAPLDVGAPDQEFGFDVGPVCFL
notes: C-terminal propeptide of the human type I procollagen α1 chain, residues 1218–1464 (residue numbers of type I procollagen); Cloned into pSecTag2A (AscI/ApaI) for secretion; Two copies of this chain stand with one PICPα2 chain in the disulfide-linked PICP heterotrimer; also called 8× His-tagged PICPα1; recombinant PICPα1 chain; source: HEK293F, transiently co-transfected with the PICPα2 plasmid at …

How the values were obtained:
[1] = target: B3; assay: pull-down; Ni-NTA purification through the 8× His tag on PICPα1 from culture supernatant of HEK293F cells co-transfected with PICPα1 and PICPα2 plasmids (2:1); western blot with anti-His and anti-c-myc antibodies, non-reducing and reducing SDS-PAGE; conditions: partners not purified
[2] = target: the molecule itself; assay: SEC; Superdex 200 10/300 GL; purified PICP (2 mg/mL) in TBS (500 mM NaCl, 2.7 mM KCl, 12 mM Tris, pH 7.4); purified PIIICP in PBS pH 7.4; apparent molecular weight against standard markers
[3] = target: B1; assay: non-reducing and reducing SDS-PAGE (stain, western blot) and SDS-CGE; purified proteins run under non-reducing and reducing conditions; band intensity (ImageJ) and peak area (Agilent 2100 bioanalyzer, Protein 230 kit) quantified; disulfide-linked trimers; conditions: both partners purified

Binder: B1
- binding result [1]: binds

B2: Procollagen type III C-terminal propeptide (PIIICP), homotrimer of PIIICPα1 (residues 1222–1466) with N-terminal 8× His tag (domain or fragment, human, UniProt P02461 1222-1466, looked up)
chain: DEPMDFKINTDEIMTSLKSVNGQIESLISPDGSRKNPARNCRDLKFCHPELKSGEYWVDPNQGCKLDAIKVFCNMETGETCISANPLNVPRKHWWTDSSAEKKHVWFGESMDGGFQFSYGNPELPEDVLDVHLAFLRLLSSRASQNITYHCKNSIAYMDQASGNVKKALKLMGSNEGEFKAEGNSKFTYTVLEDGCTKHTGEWSKTVFEYRTRKAVRLPIVDIAPYDIGGPDQEFGVDVGPVCFL
notes: C-terminal propeptide of the human type III procollagen α1 chain, residues 1222–1466; Mammalian secretion plasmid; also called 8× His-tagged PIIICPα1; recombinant PIIICP; source: HEK293F, transiently transfected, secreted; purified from culture supernatant (Ni-NTA); not shown: 8× His, N-terminal, kept
- stoichiometry N [2]: 3

Binder: B3
- stoichiometry N [3]: 2 PICPα1 chains per PICPα2 chain
